Test results: patent US7265263B1, “Potato transcription factors, methods of use thereof, and a method for enhancing tuber development” (Iowa State University Research Foundation, Inc., priority 2002, dated 2007)

How the values were obtained:
[1] = tested on: potato ga20ox1 promoter (P1, P2, P3) and first intron; experiment: Gel retardation assay with ga20ox1 promoter regions and first intron; type: binding
Text: The first intron with partial flanking exon sequence (450 bp) of potato ga20ox1 and its promoter (981 bp, provided by Dr. Salomé Prat, CSIC Cantoblanco Campus, Univ. of Madrid, Spain) were used for gel mobility shift assays. Polymerase chain reaction (PCR) was used to amplify three regions of the promoter: -981 to 636 (P1), -660 to 307 (P2), and -331 to 0 (P3). About a 25-bp overlap was maintained between P1 and P2 or P2 and P3 in the chance that the protein-binding site would span the overlapped region. The first intron of this gene was amplified from potato genomic DNA by using PCR and the oligos 5′-[…]-3′ (SEQ ID NO:21) and 5′-[…]-3′ (SEQ ID NO:22) as primers. These primers were designed based on the site of the first intron of the tobacco GA20 oxidase gene Ntc12. The four fragments were purified on a 1.4% agarose gel and labeled with α^32P-dATP using Klenow fragment. […]
In the competition assays, unlabeled double-stranded DNA fragments (10×, 25×, 50×, 100×) were incubated with the recombinant protein before the addition of the radioactive probe. The dissociation rates were determined by adding 500-fold more cold DNA fragments to the DNA-binding reactions that were being incubated on ice, and loaded onto the running gel every 10 minutes. […]

[2] = tested on: POTH1; experiment: In vitro binding assay (immunoprecipitation) with POTH1; design: species or system Solanum tuberosum; conditions: in vitro
Description: In vitro binding experiments were performed as described by Ni et al., “PIF3, a Phytochrome-Interacting Factor Necessary for Normal Photoinduced Signal Transduction, is a Novel Basic Helix-Loop-Helix Protein,” Cell 95:657-667 (1998), which is hereby incorporated by reference in its entirety. The full-length sequence for POTH1 was cloned into a pET17b/GAD fusion cassette and transcribed under the control of the T7 promoter. […] Each 50 μl TnT reaction contained 2.0 μg of template plasmid DNA and 20 μmol (20 μCi) of labeled ^35S-methionine. The POTH1:GAD/BEL complex was immunoprecipitated with anti-GAD antibodies (Santa Cruz Biotechnology, Calif.). The proteins from the pellet (one-half the fraction) and for the prey (one-fourth of the reaction volume) were resolved on a 10% SDS-PAGE gel and visualized by autoradiography.

[3] = tested on: ga20ox1 promoter; experiment: Transcription assay, GUS reporter driven by ga20ox1 promoter in tobacco protoplasts; type: cell-based, potato
Text: The cauliflower mosaic virus (CaMV) 35S promoter in pBI221 (Clontech, Palo Alto, Calif.) was replaced by an enhancer fragment (-832 to -50) of the 35S promoter plus 980 bp of the ga20ox1 promoter to generate the pGAOP::β-glucuronidase (GUS) reporter construct. With this construct, the reporter GUS transcription level is augmented but its transcription may still be affected by the ga20ox1 promoter. A CaMV 35S promoter-driven luciferase (LUC) construct 35S-LUC (obtained from Dr. Takahashi, Dept. of Biological Sciences, Graduate School of Science, Univ. of Tokyo, Japan) was used as an internal control. Effector constructs were also generated by using pBI221 vector as a backbone, with the GUS gene replaced by the full-length cDNAs of either StBEL-05 or POTH1, downstream of the CaMV 35S promoter. Truncated cDNAs that encode the N-terminal protein-binding domains of StBEL-05 or POTH1 were used to generate the dominant negative constructs, StBEL5ΔC295 and POTH1ΔC122, respectively. The reporter construct with the mutated promoter was generated by site-directed PCR mutagenesis with oligos 5′-CTATTTGACTTC*ACACGGTTATTT-3′ (SEQ ID NO:23) and 5′-AAATAACCGTGTG*AAGTCAAATAG-3′ (SEQ ID NO:24).
Fully expanded leaves from three- to four-week-old tobacco plants were excised and placed in K3 basal media (Kao et al., “Nutritional Requirements for Growth of Vicia hajastana Cells and Protoplasts at a Very Low Density in Liquid Media,” Planta 126:105-110 (1975), which is hereby incorporated by reference in its entirety) supplemented with 0.4 M sucrose, 0.25% (w-v) cellulases (Karlan Research Products, Santa Rosa, CA), and 0.05% (w-v) macerases (Calbiochem, La Jolla, Calif.) and incubated for overnight at 28° C. After incubation, the liberated protoplasts were filtered through sterile cheesecloth into a Babcock bottle, and centrifuged for 10 minutes at 1000 rpm. Protoplasts were collected from the bottleneck area and washed once in K3 media with 0.4 M sucrose and resuspended in K3 media containing 0.4 M glucose to a final concentration of 4×10^6 protoplasts per milliliter. […]
(§1) Luciferase assays were performed by injecting 100-μL luciferase substrate (Promega, Madison, Wis.) into 20 μL of extract and measuring the emitted photons for 15 seconds in a TD-20 luminometer (Turner Designs, Sunnyvale, Calif.). […] A fluorescence multiwell plate reader, Fluoroskan II (MTX labs, Vienna, Va.), was used to measure GUS activity at 365 nm (excitation) and 455 nm (emission). Each sample was measured three times for both LUC and GUS activity. Relative GUS-LUC activity was calculated by dividing the ratio of GUS activity to LUC activity from different effectors with the ratio from reporter plasmid alone. Relative activities calculated from three transfection replications were presented as a mean±SE.

[4] = tested on: CaMV 35S promoter; experiment: Transcription assay, GUS reporter driven by CaMV 35S promoter in tobacco protoplasts; type: cell-based, cauliflower mosaic virus
Description: FIGS. 24A-C show schematics of constructs (FIG. 24A) and the repression effect of StBEL-05 and POTH1 on the ga20ox1 promoter (FIG. 24B) and on the 35S CaMV promoter (FIG. 24C). The construct with the LUC gene under the control of the cauliflower mosaic virus (CaMV) 35S promoter was used as an internal control. Each transfection was performed three times. Relative GUS-LUC activity was calculated with reporter alone set as 100%. Data are means±SE.
For each transfection analysis, 700 μL of tobacco protoplasts (prepared as described above) were mixed with 30 μL 2 M KCl and plasmid DNA in an electroporation cuvette with 0.4-cm electrode gap. […]
as §1

B1: POTH1: KNOX transcription factor of potato, SEQ ID NO:17, 345 residues (protein, listed as Solanum tuberosum)
chain: MDDEMYGFHSTRDDYADKALMSPENLMMQTEYNNFHNYTNSSILTSNPMMFGSDDIQLSSEQTNSFSTMTLQNNDNIYQIRSGNCGGGSGSGGSSKDHNDNNNNNEDYDEDGSNVIKAKIVSHPYYPKLLNAYIDCQKVGAPAGIVNLLEEIRQQTDFRKPNATSICIGADPELDEFMETYCDILLKYKSDLSRPFDEATTFLNKIEMQLGNLCKDDGGVSSDEELSCGEADASMRSEDNELKDRLLRKFGSHLSSLKLEFSKKKKKGKLPKEARQMLLAWWDDHFRWPYPTEADKNSLAESTGLDPKQINNWFINQRKRHWKPSENMQLAVMDNLSSQFFSSDD
binding to ga20ox1 regulatory regions (mobility shift) [1]: only formed a complex with P1 | homodimer formation [2]: did not form homodimers in vitro | relative GUS-LUC activity of the pGAOP::GUS reporter construct ([3]; co-transfected effector, reporter alone = 100%): decreased by more than half | repression of promoter activity, reporter with point mutation in the binding site ([3]; mutated ga20ox1 promoter): no detectable repression | effect on the activity of the CaMV 35S promoter [4]: Neither StBEL-05 nor POTH1 showed any effect
